One experiment concerns the target CD19 (UniProt P15391). The experiment can be described thus: cell-based or functional assay.
As for KTKKQRKQMHNHLR (receptor, part only) [hingeNotch STS variant with NRG2 STS (…)], the Average MFI Difference (MFI of ON - MFI of OFF) (BFP reporter; no CAR stimulation) came to 1260 MFI; the Average MFI Difference (MFI of ON - MFI of OFF) (BFP reporter; with CAR stimulation by ALPPL2+ K562) came to 2200 MFI; the Average Signal To Noise (BFP reporter MFI, CD19+ K562 vs K562; no CAR stimulation) came to 8.32; the Average Signal To Noise (BFP reporter MFI, CD19+ K562 vs K562; with CAR stimulation by ALPPL2+ K562) turned out to be 15.8.
For RRRSKYSKAK (receptor, part only) [hingeNotch STS variant with EPHA3 STS (…)], the Average MFI Difference (MFI of ON - MFI of OFF) (BFP reporter; no CAR stimulation) worked out at 1290 MFI; the Average MFI Difference (MFI of ON - MFI of OFF) (BFP reporter; with CAR stimulation by ALPPL2+ K562) came out at 2270 MFI; the Average Signal To Noise (BFP reporter MFI, CD19+ K562 vs K562; no CAR stimulation) stood at 2.97; the Average Signal To Noise (BFP reporter MFI, CD19+ K562 vs K562; with CAR stimulation by ALPPL2+ K562) was 6.31.
In the case of HRRCKHRTGK (receptor, part only) [hingeNotch STS variant with IL1R2 STS (…)], the Average MFI Difference (MFI of ON - MFI of OFF) (BFP reporter; no CAR stimulation) worked out at 980 MFI; the Average MFI Difference (MFI of ON - MFI of OFF) (BFP reporter; with CAR stimulation by ALPPL2+ K562) was 2030 MFI; the Average Signal To Noise (BFP reporter MFI, CD19+ K562 vs K562; no CAR stimulation) was found to be 2.41; the Average Signal To Noise (BFP reporter MFI, CD19+ K562 vs K562; with CAR stimulation by ALPPL2+ K562) worked out at 4.78.
In turn, HPLRKRRKRKKK (receptor, part only) [hingeNotch STS variant with BTC STS (…)] showed an Average MFI Difference (MFI of ON - MFI of OFF) (BFP reporter; no CAR stimulation) of 480 MFI; an Average MFI Difference (MFI of ON - MFI of OFF) (BFP reporter; with CAR stimulation by ALPPL2+ K562) of 423 MFI; an Average Signal To Noise (BFP reporter MFI, CD19+ K562 vs K562; no CAR stimulation) of 1.23; an Average Signal To Noise (BFP reporter MFI, CD19+ K562 vs K562; with CAR stimulation by ALPPL2+ K562) of 1.71.
As to RRKREH (receptor, part only) [hingeNotch STS variant with Notch3 STS (RRKREH)], the Average MFI Difference (MFI of ON - MFI of OFF) (BFP reporter; no CAR stimulation) was determined as 1190 MFI; the Average MFI Difference (MFI of ON - MFI of OFF) (BFP reporter; with CAR stimulation by ALPPL2+ K562) amounted to 1990 MFI; the Average Signal To Noise (BFP reporter MFI, CD19+ K562 vs K562; no CAR stimulation) was 12.8; the Average Signal To Noise (BFP reporter MFI, CD19+ K562 vs K562; with CAR stimulation by ALPPL2+ K562) was determined as 29.2.

In another experiment the target is CD19 (UniProt P15391). Briefly: cell-based or functional assay. This is another data set of the same source.
“hingeNotch STS variant with AGER STS (RRQRR) (receptor)” came in with an Average MFI Difference (MFI of ON - MFI of OFF) (BFP reporter; no CAR stimulation) of 1130 MFI; an Average MFI Difference (MFI of ON - MFI of OFF) (BFP reporter; with CAR stimulation by ALPPL2+ K562) of 1790 MFI; an Average Signal To Noise (BFP reporter MFI, CD19+ K562 vs K562; no CAR stimulation) of 11.9; an Average Signal To Noise (BFP reporter MFI, CD19+ K562 vs K562; with CAR stimulation by ALPPL2+ K562) of 106.
As to “hingeNotch STS variant with CDH2 STS (…) (receptor)”, the Average MFI Difference (MFI of ON - MFI of OFF) (BFP reporter; no CAR stimulation) stood at 1130 MFI; the Average MFI Difference (MFI of ON - MFI of OFF) (BFP reporter; with CAR stimulation by ALPPL2+ K562) was determined as 2830 MFI; the Average Signal To Noise (BFP reporter MFI, CD19+ K562 vs K562; no CAR stimulation) came out at 2.26; the Average Signal To Noise (BFP reporter MFI, CD19+ K562 vs K562; with CAR stimulation by ALPPL2+ K562) is 4.24.
“hingeNotch STS variant with CSF1R STS (KYKQKPK) (receptor)”: the Average MFI Difference (MFI of ON - MFI of OFF) (BFP reporter; no CAR stimulation) stood at 801 MFI; the Average MFI Difference (MFI of ON - MFI of OFF) (BFP reporter; with CAR stimulation by ALPPL2+ K562) turned out to be 1510 MFI; the Average Signal To Noise (BFP reporter MFI, CD19+ K562 vs K562; no CAR stimulation) was found to be 3.09; the Average Signal To Noise (BFP reporter MFI, CD19+ K562 vs K562; with CAR stimulation by ALPPL2+ K562) was found to be 5.45.
With “hingeNotch STS variant with CXCL16 STS (KRRR) (receptor)”, the Average MFI Difference (MFI of ON - MFI of OFF) (BFP reporter; no CAR stimulation) was determined as 1290 MFI; the Average MFI Difference (MFI of ON - MFI of OFF) (BFP reporter; with CAR stimulation by ALPPL2+ K562) was determined as 1690 MFI; the Average Signal To Noise (BFP reporter MFI, CD19+ K562 vs K562; no CAR stimulation) amounted to 14.4; the Average Signal To Noise (BFP reporter MFI, CD19+ K562 vs K562; with CAR stimulation by ALPPL2+ K562) was determined as 27.9.
For “hingeNotch STS variant with DAG1 STS (RKKRKGK) (receptor)”, the Average MFI Difference (MFI of ON - MFI of OFF) (BFP reporter; no CAR stimulation) worked out at 2520 MFI; the Average MFI Difference (MFI of ON - MFI of OFF) (BFP reporter; with CAR stimulation by ALPPL2+ K562) is 4640 MFI; the Average Signal To Noise (BFP reporter MFI, CD19+ K562 vs K562; no CAR stimulation) turned out to be 2.82; the Average Signal To Noise (BFP reporter MFI, CD19+ K562 vs K562; with CAR stimulation by ALPPL2+ K562) was 7.4.
In the case of “hingeNotch STS variant with EPCAM STS (…) (receptor)”, the Average MFI Difference (MFI of ON - MFI of OFF) (BFP reporter; no CAR stimulation) was 864 MFI; the Average MFI Difference (MFI of ON - MFI of OFF) (BFP reporter; with CAR stimulation by ALPPL2+ K562) is 2370 MFI; the Average Signal To Noise (BFP reporter MFI, CD19+ K562 vs K562; no CAR stimulation) stood at 1.64; the Average Signal To Noise (BFP reporter MFI, CD19+ K562 vs K562; with CAR stimulation by ALPPL2+ K562) turned out to be 2.48.
For “hingeNotch STS variant with GHR STS (KQQRIK) (receptor)” the same measures were 141 MFI, -51.5 MFI, 2.22 and 2.67.
In turn, “hingeNotch STS variant with Jag2 STS (…) (receptor)” registered an Average MFI Difference (MFI of ON - MFI of OFF) (BFP reporter; no CAR stimulation) of 1320 MFI; an Average MFI Difference (MFI of ON - MFI of OFF) (BFP reporter; with CAR stimulation by ALPPL2+ K562) of 3320 MFI; an Average Signal To Noise (BFP reporter MFI, CD19+ K562 vs K562; no CAR stimulation) of 5.09; an Average Signal To Noise (BFP reporter MFI, CD19+ K562 vs K562; with CAR stimulation by ALPPL2+ K562) of 21.4.
The corresponding values for “hingeNotch STS variant with KCNE3 STS (RSRKVDKR) (receptor)” are 976 MFI, 1900 MFI, 9.78 and 62.5.
The corresponding values for “hingeNotch STS variant with KL STS (KKGRRSYK) (receptor)” are 880 MFI, 1570 MFI, 3.72 and 6.53.
With “hingeNotch STS variant with LRP1B STS (…) (receptor)”, the Average MFI Difference (MFI of ON - MFI of OFF) (BFP reporter; no CAR stimulation) came out at 1010 MFI; the Average MFI Difference (MFI of ON - MFI of OFF) (BFP reporter; with CAR stimulation by ALPPL2+ K562) worked out at 2560 MFI; the Average Signal To Noise (BFP reporter MFI, CD19+ K562 vs K562; no CAR stimulation) is 2.32; the Average Signal To Noise (BFP reporter MFI, CD19+ K562 vs K562; with CAR stimulation by ALPPL2+ K562) is 10.3.
“hingeNotch STS variant with NRG1 STS (…) (receptor)” yielded an Average MFI Difference (MFI of ON - MFI of OFF) (BFP reporter; no CAR stimulation) of 806 MFI; an Average MFI Difference (MFI of ON - MFI of OFF) (BFP reporter; with CAR stimulation by ALPPL2+ K562) of 637 MFI; an Average Signal To Noise (BFP reporter MFI, CD19+ K562 vs K562; no CAR stimulation) of 9.42; an Average Signal To Noise (BFP reporter MFI, CD19+ K562 vs K562; with CAR stimulation by ALPPL2+ K562) of 25.
As to “hingeNotch STS variant with Notch 2 STS (KRKRKH) (receptor)”, the Average MFI Difference (MFI of ON - MFI of OFF) (BFP reporter; no CAR stimulation) was 1260 MFI; the Average MFI Difference (MFI of ON - MFI of OFF) (BFP reporter; with CAR stimulation by ALPPL2+ K562) was 4190 MFI; the Average Signal To Noise (BFP reporter MFI, CD19+ K562 vs K562; no CAR stimulation) is 5.24; the Average Signal To Noise (BFP reporter MFI, CD19+ K562 vs K562; with CAR stimulation by ALPPL2+ K562) was 15.5.
For “hingeNotch STS variant with Notch 4 STS (RRRREH) (receptor)”, the Average MFI Difference (MFI of ON - MFI of OFF) (BFP reporter; no CAR stimulation) came out at 1020 MFI; the Average MFI Difference (MFI of ON - MFI of OFF) (BFP reporter; with CAR stimulation by ALPPL2+ K562) was found to be 1480 MFI; the Average Signal To Noise (BFP reporter MFI, CD19+ K562 vs K562; no CAR stimulation) turned out to be 10.3; the Average Signal To Noise (BFP reporter MFI, CD19+ K562 vs K562; with CAR stimulation by ALPPL2+ K562) came to 24.1.
Regarding “hingeNotch STS variant with PTPRF STS (KRKRTH) (receptor)”, the Average MFI Difference (MFI of ON - MFI of OFF) (BFP reporter; no CAR stimulation) was 1180 MFI; the Average MFI Difference (MFI of ON - MFI of OFF) (BFP reporter; with CAR stimulation by ALPPL2+ K562) is 2570 MFI; the Average Signal To Noise (BFP reporter MFI, CD19+ K562 vs K562; no CAR stimulation) came out at 10.5; the Average Signal To Noise (BFP reporter MFI, CD19+ K562 vs K562; with CAR stimulation by ALPPL2+ K562) came to 50.8.

Values taken from patent US20220133797A1.
